Source: the nanobody polyreactivity screen of Harvey et al. (2022)

Assay: yeast display, Sf9 membrane polyspecificity reagent, FACS + sequencing; frameworks hold sequencing errors
Method in brief: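 A nanobody's polyreactivity label depends on the gate it was sorted from. Yeast display cells were stained with 10% biotinylated, detergent-solubilized Sf9 membrane reagent for 1 hour at 4 °C, enriched on streptavidin microbeads and sorted by FACS. The low and high (top ~1%) gates were set on anti-HA fluorescence for expression and streptavidin fluorescence for reagent binding.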

Sequence	polyreactivity (PSR sort gate)
QVQLVESGGGLDQAGGSLRLSCAASGSTFNWYTMGWYRQAPGKERELVAAISLNGGRTYYADSVKGRFTISRDNAKNTVYFQMNSLKQEDTAVYYCAAQISFYFAQYNLARFRGYYWGQGTQVTVSS	high polyreactivity
QVQLVESGGGLDQAGGSLRLSCAASGSTFRSNAMGWYRQAPGKERELVAGITSGTSTNYADSVKGRFTISRDNAKNTVYLQMNSLKPEDTAVYYCNTDRIWYGPEYDYWGQGTQVTVSS	low polyreactivity
QVQLVESGGGLDQAGGSLRLSCAASGSTFSRNAMGWYRQAPGKERELVAGISYIGGRTYYADSVKGRFTISRDNAKNTVYLQMNSLKPEDTAVYYCNVVPKSRDWQSYGSWGQGTQVTVSS	high polyreactivity
QVQLVESGGGLDQAGGSLRLSCAASGSTFYPYAMGWYRQAPGKERDFVAAISYSAGSTYYADSVKGRFTISRDNAKNTVYLQMHSLKPEDTAVYYCADYGWYTYQTSYDYWGQGTQVTVSS	low polyreactivity
QVQLVESGGGLDQAGGSLRLSCAASGSTLPVYALGWNRQAPGKERELVAAITDSGGNTYYADSVKGRFTISRDNAKNTVYLQMNSLKPEDTAVYYCNADAQSTSGYGYYAPYWMDYWGQGTQVTVSS	low polyreactivity
QVQLVESGGGLDQAGGSLRLSCAASGYTFNLNAMGWYRQAPGKERELVAAISSGDSTDYADSVKGRFTISRDNAKNTVYLQMHSLQPEDTAVYYCNADLPVVWRRDFWGDLYWGQATQVTVSS	low polyreactivity
QVQLVESGGGLDQAGGSLRLSCAASGYTYGTYDMRWYRQAPGKERELVAAISIGGSTNYADSVKGRFTISRDNAKNTVYLQMNSLKPEDTAVYYCAAEVNVGTLLLSVIVEDGDYWGQGTQVTVSS	low polyreactivity
QVQLVESGGGLDQAGGSLRLSCAAYGVPSLTMNMGWYRQAPGKERELFATIYSGGSTYYADSVKWRFTISRDNAKNTVYLQMNRLKPEDTAVYYCAARQSYYYSRSYIRGDYWGQGTQVTVSS	high polyreactivity
QVQLVESGGGLDQAGGSLRLSSAASGFIFDGNAMGWYRQAPGKERELVASITKSSGRTYYADSVKGRFTISRDNAKNTVYLQMNSLKPEDTAVYYCNKARRSVQPYGRQYDYWGQGTQVTVSS	high polyreactivity
QVQLVESGGGLDQAGGSLRLSSAASGRIFSKSAMGLYRQAPGKETELVAAMTSGGRTYYADSVKGRFTISRDIAKNTVYLQMNSLKPEDTAVYYCAARYVQVVRKFGYWVQGTQVTVSS	high polyreactivity
QVQLVESGGGLDQAGGSLRLTCADSGSIFIRNAMGWYRHAPGKESELVAAISGSGSSTYYADSVKGRFTISRDNAKNTVYLQMNSLKPEDTAVYYCNTDRTHSYQYGGYDYWGQGTQVTVSS	low polyreactivity
QVQLVESGGGLDQAGGSLSLSCAASGIIFAGNAMGWYRQPPGKERELVAAISSNGGSTYYADSVKGRFTISRDNAKNTVYLQMNSLKPEDTAVYYCAADRVYWGRVQGYYWGQGTQVTVSS	low polyreactivity
QVQLVESGGGLDQAGVSLRLSCAASGSTFSANAMGWFRQAPGKERELVAAISSGDITYYADSVKGRFTISRDNAKNTVYLQMNSLKPEDTAVYYCAKYTRPTGNVDDGFEYWGQGTQVTVSS	low polyreactivity
QVQLVESGGGLDQARGSLRLSCAASGLTFASNAMGWYRQAPGKERELVAAISWSDGSTYYADSVKGRFTISRDNAKNTVYLQMNSLKPEDTAVYYCAAEPPGFRTSRVGYWGQGTQVTVSS	low polyreactivity
QVQLVESGGGLDQARGSLRLSCAASGRTSLRYAMGWYRQAPWKERELVAAITSSGATTYYADSVKGRFTISRDNAKNTVYLQMNSLKPEDTAVYYCAAVYSAKRGSGGFGYWGQGTQVTVSS	high polyreactivity
QVQLVESGGGLDQARGTLRLSCAASGSTILGNAMGWYRHAPGKERELVAGITSGGTTNYADSVKGRFTISRVNAKNNVYLQMTSLKPEDTSVYYCNAGGHLEMNYWGKGTQVTVSS	low polyreactivity
QVQLVESGGGLDQEGVRLRLSCAASGRTFRIYAMGLYRQAPGNERELVAAISSDASTSYADSVKGRFTISRDNPKNTVYFQMNSLKPEATAVYYSAADPGPYFDWGYDFWGQGTQVTVSS	low polyreactivity
QVQLVESGGGLEQAGGSLRISCAASVSTVRFNAMGWYIQEPGKERQLVAVIRWRGGTTYYADSVKGRFTISRDNAKNTVYLQMNSLKPEDPAVYYCNADYWFSYTWHGSYTVGYWGQGTQVTVSS	high polyreactivity
QVQLVESGGGLEQAGGSLRLSCAASGRTFYYYAMGWYRQAPGKERELVAAIRWRGGRTYADSVKGRFTISRDNAKNTVYLQMKSLKPEDTAVYYCAVDSFYRHASLYDYWGQGTQVTVSS	high polyreactivity
QVQLVESGGGLFHAGGSLRLICAASGTTFKYYAMGSYRQAPAIEREFVAAISTRTGNTYYADSVKGRFTISRDNAKNTVYLQMNSLKPEDTAVYYCAARPRQGRGYDFYYWGQGTQVTVSS	high polyreactivity
QVQLVESGGGLFQAAGSLRLSCAASGLTFAYNAMGWYRQAPGKERELDAEISKRGGSTFYADSVKGRFTLSHVNAKNTVYLQMNSLKPEDTAVYYCARGSYPYRSFWLTSDDWGQGTQVTVSS	high polyreactivity
QVQLVESGGGLFQAGGILRLSCAASGFIFSSYAMGLYRLAPGKERELVAAISRSGGRTYYADSVKGRFTISRDYAKNTVYLQMNSLKPEDTAVYYCAARWYGLYLQRYDYWGQGTQVTVSS	high polyreactivity
QVQLVESGGGLFQAGGSHRLSCAASGSTFRVYAMGWYRHAPGKERELVADISRSVTRTYYADSVKGRFTISRDNSKNTFYLQMNSLIPEETAVYYCAAVSYYRRWQTAYYSWGQGTQVTVSS	high polyreactivity
QVQLVESGGGLFQAGGSLGLSCAASGSTFSKYAMGWSRQAPGKERELVAAISSGGRTNYADSVKGRFTISRDNAKNTVYLHMNSLKPEDTAVYDCAALWGYWAYYYWGQGTQVTVSS	low polyreactivity
QVQLVESGGGLFQAGGSLPVSCAASGFIFDDYAMGWYRQAPGKERELVAAISSGGSTNYADSVKGRFTISRDNAKNTVYLQLNSLKPEDSAVYYCADRAGYQFSYNYWGQGTQVTVSS	high polyreactivity
QVQLVESGGGLFQAGGSLRFSCAASGIIFSTNAMGWYRQAPGKERELVATITSSSGRTYYADSVKGRFTISRDNAKNTLYLQMNSLKPEDTAVYYCATGGVLIKGHYYWGQGTQVTVSS	low polyreactivity
QVQLVESGGGLFQAGGSLRIICAASGSIFGAYAMGWYRQAPGKERELVAGIRRAGDSTYYADSVKGRFTISRDYAKNTVYLLMNCMKPEDTAVYYCAAYLYLEYYYRGQGTQVTVSS	low polyreactivity
QVQLVESGGGLFQAGGSLRITCSPSGFIFHGYAMGWYRQAPGKERELVAAISTGTNTNYADSLKGRFTISRDNAKNTVYIQMNRLKPEDTAVYYCNARSADTWYTSRRFYYWGQGTQVTVSS	low polyreactivity
QVQLVESGGGLFQAGGSLRLSCAASGFIFTGYAMGWYRQAPGKASELVAVISYSAGSTYYADSVKGRFTISRDNAKNTVYLQMNSLKPEDTAVYYCAADHGKNLTYDYWGQGTQVTVSS	high polyreactivity
QVQLVESGGGLFQAGGSLRLSCAASGFTFDYYAMGWYRQAPGKERELVADINRSGGSSYYADSVKGRFTISRDNAKNTVYLQMNSLKPEDTAVYYCNARVTPFFYHYPRDYYYWGQGTQVTVSS	high polyreactivity
